Publication PMC10370305, “Functional Degeneracy in Paracoccus denitrificans Pd1222 Is Coordinated via RamB, Which Links Expression of the Glyoxylate Cycle to Activity of the Ethylmalonyl-CoA Pathway” (Applied and Environmental Microbiology, 2023)
Values belong to the compound of their own block, whether it stands above or below them.

How the values were obtained:
RamBPd (Pden_1365) [1] = molecular target: T1, RamBPd (Pden_1365) (Paracoccus denitrificans, UniProt A1B1S2); experiment: mass photometry titration (tetramer to dimer shift; saturation at […], […] dimer to tetramer); format: binding
T1 construct: purified RamBPd, His-SUMO tag cleaved off
T1 sequence (A1B1S2 1-477): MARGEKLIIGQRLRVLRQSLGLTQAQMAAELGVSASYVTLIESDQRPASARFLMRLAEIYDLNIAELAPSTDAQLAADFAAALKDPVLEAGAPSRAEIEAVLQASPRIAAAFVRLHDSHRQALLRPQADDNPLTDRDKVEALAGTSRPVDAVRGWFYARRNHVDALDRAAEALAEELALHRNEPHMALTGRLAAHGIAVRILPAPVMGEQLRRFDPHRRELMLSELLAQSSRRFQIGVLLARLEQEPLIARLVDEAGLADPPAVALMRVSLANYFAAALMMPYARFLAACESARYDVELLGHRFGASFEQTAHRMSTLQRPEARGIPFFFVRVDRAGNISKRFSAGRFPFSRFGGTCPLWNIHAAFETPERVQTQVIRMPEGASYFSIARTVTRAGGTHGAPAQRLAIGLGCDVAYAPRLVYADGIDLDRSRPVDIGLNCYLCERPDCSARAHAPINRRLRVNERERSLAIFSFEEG

RamBPd (Pden_1365) [2] = molecular target: T1, RamBPd (Pden_1365); experiment: mass photometry titration (tetramer to dimer shift); format: binding
[3] = molecular target: RamBPd (Pden_1365), regulator of acetate metabolism of Paracoccus denitrificans Pd1222 (Paracoccus denitrificans Pd1222); experiment: mass photometry; 250 nM RamBPd in PBS (pH 7.4), pre-incubated for 35 min with rising concentrations of free CoA or of a CoA ester (ethylmalonyl-, methylsuccinyl-, mesaconyl-, crotonyl-, beta-methylmalyl-CoA); tetramer to dimers
[4] = molecular target: RamBPd (Pden_1365), regulator of acetate metabolism of Paracoccus denitrificans Pd1222 (Paracoccus denitrificans Pd1222); experiment: mass photometry; 250 nM RamBPd in PBS (pH 7.4), no supplement; Refeyn One mass photometer

Compound: CC(C)(COP(=O)(O)OP(=O)(O)OC[C@H]1O[C@@H](n2cnc3c(N)ncnc32)[C@H](O)[C@@H]1OP(=O)(O)O)[C@@H](O)C(=O)NCCC(=O)NCCS [CoA]
mass photometry titration (tetramer to dimer shift); saturation at 62.5 μM, 1:1 d (RamBPd (Pden_1365) [1]): tetrameric RamBPd complex dissociates into a dimer upon the addition of CoA

Kd (RamBPd (Pden_1365) [2]): ~700 µM
Compound: C[C@@H](C(=O)SCCNC(=O)CCNC(=O)[C@H](O)C(C)(C)COP(=O)(O)OP(=O)(O)OC[C@H]1O[C@@H](n2cnc3c(N)ncnc32)[C@H](O)[C@@H]1OP(=O)(O)O)[C@H](O)C(=O)O [β-methylmalyl-CoA]

ratio of dimer to tetramer at saturation with 62.5 uM free CoA (dimer:tetramer) [3]: 1
ratio of dimers to tetramers with beta-methylmalyl-CoA (dimer:tetramer) [3]: 9
ratio of dimers to tetramers with crotonyl-CoA (dimer:tetramer) [3]: 3
ratio of dimers to tetramers with mesaconyl-CoA (dimer:tetramer) [3]: 3
stoichiometry N [3]: 2
stoichiometry N [4]: 4
Compound: RamBPd (Pden_1365), regulator of acetate metabolism of Paracoccus denitrificans Pd1222 (natural protein)
